Columns and labels:
[1] = molecular target: T1, Snu13 V93IR95V (Saccharomyces cerevisiae, UniProt P39990 1-126, V93I;R95V); experiment: EMSA; EMSA: annealed in 10 mM Tris-HCl, 100 mM NaCl, 1 mM EDTA, pH 7.5; 4 C, 10% native PAGE; 10 pmol Cy5-RNA (~2 uM) or 0.5 nmol unlabeled RNA. RNP: 20 mM Na phosphate, 500 mM NaCl, pH 6.6; settings: protein: recombinant, tags: N-terminal His6, TEV-cleaved, label: 5'-Cy5
T1 sequence: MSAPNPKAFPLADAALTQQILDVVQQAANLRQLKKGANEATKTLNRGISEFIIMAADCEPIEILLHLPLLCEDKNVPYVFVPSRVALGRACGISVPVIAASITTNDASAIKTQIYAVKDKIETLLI

[2] = molecular target: T2, L7Ae (Pyrococcus furiosus, UniProt Q8U160 1-123); experiment: EMSA; similar to snR51-kl1; EMSA: annealed in 10 mM Tris-HCl, 100 mM NaCl, 1 mM EDTA, pH 7.5; 4 C, 10% native PAGE; 10 pmol Cy5-RNA (~2 uM) or 0.5 nmol unlabeled RNA. RNP: 20 mM Na phospha
[3] = molecular target: T3, Snu13 R95VP96A (Saccharomyces cerevisiae, UniProt P39990 1-126, R95V;P96A); experiment: EMSA; EMSA: annealed in 10 mM Tris-HCl, 100 mM NaCl, 1 mM EDTA, pH 7.5; 4 C, 10% native PAGE; 10 pmol Cy5-RNA (~2 uM) or 0.5 nmol unlabeled RNA. RNP: 20 mM Na phosphate, 500 mM NaCl, pH 6.6; settings: protein: recombinant, tags: N-terminal His6, TEV-cleaved, label: 5'-Cy5
T3 sequence: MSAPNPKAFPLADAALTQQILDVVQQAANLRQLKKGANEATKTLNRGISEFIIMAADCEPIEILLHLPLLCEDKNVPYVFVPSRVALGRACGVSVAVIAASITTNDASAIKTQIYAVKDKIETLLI

[4] = molecular target: T2, L7Ae; experiment: EMSA; EMSA: annealed in 10 mM Tris-HCl, 100 mM NaCl, 1 mM EDTA, pH 7.5; 4 C, 10% native PAGE; 10 pmol Cy5-RNA (~2 uM) or 0.5 nmol unlabeled RNA. RNP: 20 mM Na phospha
[5] = molecular target: T4, Snu13 (Saccharomyces cerevisiae, UniProt P39990 1-126); experiment: EMSA (ethidium bromide); ~100 uM RNA; EMSA: annealed in 10 mM Tris-HCl, 100 mM NaCl, 1 mM EDTA, pH 7.5; 4 C, 10% native PAGE; 10 pmol Cy5-RNA (~2 uM) or 0.5 nmol unlabeled RNA. RNP: 20 mM Na phosphate, 500 mM NaCl, pH 6.6; settings: protein: recombinant; tags: N-terminal His6, TEV-cleaved; k-turn
T4 sequence: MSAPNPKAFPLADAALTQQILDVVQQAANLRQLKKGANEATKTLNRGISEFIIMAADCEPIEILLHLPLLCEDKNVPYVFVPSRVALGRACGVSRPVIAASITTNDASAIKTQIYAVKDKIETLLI

[6] = molecular target: T2, L7Ae; experiment: EMSA; affinity not improved over snR51-kl1; EMSA: annealed in 10 mM Tris-HCl, 100 mM NaCl, 1 mM EDTA, pH 7.5; 4 C, 10% native PAGE; 10 pmol Cy5-RNA (~2 uM) or 0.5 nmol unlabeled RNA. RNP: 20 mM Na phospha
[7] = molecular target: T5, Snu13 R95VI98A (Saccharomyces cerevisiae, UniProt P39990 1-126, R95V;I98A); experiment: EMSA; better than wild type; EMSA: annealed in 10 mM Tris-HCl, 100 mM NaCl, 1 mM EDTA, pH 7.5; 4 C, 10% native PAGE; 10 pmol Cy5-RNA (~2 uM) or 0.5 nmol unlabeled RNA. RNP: 20 mM Na phosphate, 500 mM NaCl, pH 6.6; settings: protein: recombinant; tags: N-terminal His6, TEV-cleaved; label: 5'-Cy5; k-turn
T5 sequence: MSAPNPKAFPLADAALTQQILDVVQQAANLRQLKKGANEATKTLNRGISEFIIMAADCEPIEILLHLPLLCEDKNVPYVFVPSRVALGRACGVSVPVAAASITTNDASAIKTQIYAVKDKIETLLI

[8] = molecular target: T1, Snu13 V93IR95V; experiment: as above; settings: protein: recombinant; tags: N-terminal His6, TEV-cleaved; label: 5'-Cy5; k-turn
[9] = molecular target: T3, Snu13 R95VP96A; experiment: as above; settings: protein: recombinant; tags: N-terminal His6, TEV-cleaved; label: 5'-Cy5; k-turn

Binder: ACUGAAAUAGUUGUAGA (structured_RNA) [snR54-kl3]
- binding result ([1]; k-loop): binds

Binder: UACGAAAUAGUUGAUGA (structured_RNA) [snR51-kl4]
- binding result [2]: binds

Binder: ACUGACUGUGAUCAAACGAUCUUGAAGA (structured_RNA) [snR54-kl2]
- binding result [1]: binds
- binding result [3]: binds

Binder: ACUGACUGUGAUCAAACGAUCUUGUAGA (structured_RNA) [snR54-kl1]
- binding result [4]: no binding
- binding result ([1]; non-canonical k-turn): binds
- binding result ([3]; non-canonical k-turn): binds

Binder: UACUAAAUAGUUGAUGA (structured_RNA) [snR51-kl3]
- binding result ([1]; k-loop): binds

Binder: UACUAGAUUGGUCUCUUUCAAGAAGGGGCUAAUUGAUGA (structured_RNA) [snR51-kl1]
- Kd [4]: < 141 nM

Binder: UACGAGAUUGGUCUCUUUCAAGAAGGGGCUAAUUGAUGA (structured_RNA) [snR51-kl2 unlabeled]
- binding result [5]: binds

Binder: UACGAGAUUGGUCUCUUUCAAGAAGGGGCUAAUUGAUGA (structured_RNA) [snR51-kl2]
- binding result [6]: binds
- binding result [7]: binds
- binding result [8]: binds
- binding result [9]: binds
